Patent US20140087995A1 (published 2014)
Blank lines part the entries; values can stand above or below the binder they belong to. Numbered stars: 1 amine (or outer) side, 2 acyl side, 3 side chain; on linkers, the order of the positions; unused ones are H or OH. Bridge positions count the residues as written; N and C are the ends. Side chains are listed from the residue outwards. Ends that are not written are not given here. * marks the point of attachment. C20 diacid = O=C(O)CCCCCCCCCCCCCCCCCCC(=O)*; γGlu = O=C(O)[C@H](CCC(=O)[*:2])N[*:1]

How the values were obtained:
[1] = biological target: T1, human calcitonin receptor (human, UniProt P30988 25-474); assay: ratio of binding IC50s: human calcitonin receptor / human amylin receptor (reference)
T1 construct: whole, on cells; Membranes prepared from a stably transfected BHK cell line (Assay VII); also called hCTR; hCT
T1 sequence (looked up): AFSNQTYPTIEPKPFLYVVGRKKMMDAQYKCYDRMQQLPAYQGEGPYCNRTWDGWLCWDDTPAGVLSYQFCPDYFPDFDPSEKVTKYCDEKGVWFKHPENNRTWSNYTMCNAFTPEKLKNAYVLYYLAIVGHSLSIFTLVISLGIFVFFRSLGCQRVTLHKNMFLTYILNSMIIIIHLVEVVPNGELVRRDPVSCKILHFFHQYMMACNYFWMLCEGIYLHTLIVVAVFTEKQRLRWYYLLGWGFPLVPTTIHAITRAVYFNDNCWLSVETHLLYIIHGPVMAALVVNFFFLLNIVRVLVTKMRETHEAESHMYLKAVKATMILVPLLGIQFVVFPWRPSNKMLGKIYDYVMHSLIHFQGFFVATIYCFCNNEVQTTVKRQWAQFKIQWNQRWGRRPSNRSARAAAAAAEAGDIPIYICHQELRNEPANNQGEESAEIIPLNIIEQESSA
Method in brief: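 Scintillation proximity competition binding on cell membranes at 35 ng/μL with SPA beads, in 50 mM Hepes pH 7.4, 1 mM CaCl2, 5 mM MgCl₂, 0.1% OA, 0.02% Tween20. Incubated 120 min at 25° C with shaking. IC₅₀ from one-site competition fit.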

[2] = biological target: T2, rat amylin receptor (rat calcitonin receptor + rat RAMP 3) (rat, UniProt P32214 25-516; Q9JJ73 23-147); assay: SPA competition vs 125I-rat amylin, membranes of BHK cells with rat calcitonin receptor + rat RAMP3 (Assay VI)
T2 construct: whole, on cells; Membranes prepared from transiently transfected BHK tk'ts 13 cells (Assay VI); also called rAmylin-R; rAmylin
T2 sequence (looked up) 1: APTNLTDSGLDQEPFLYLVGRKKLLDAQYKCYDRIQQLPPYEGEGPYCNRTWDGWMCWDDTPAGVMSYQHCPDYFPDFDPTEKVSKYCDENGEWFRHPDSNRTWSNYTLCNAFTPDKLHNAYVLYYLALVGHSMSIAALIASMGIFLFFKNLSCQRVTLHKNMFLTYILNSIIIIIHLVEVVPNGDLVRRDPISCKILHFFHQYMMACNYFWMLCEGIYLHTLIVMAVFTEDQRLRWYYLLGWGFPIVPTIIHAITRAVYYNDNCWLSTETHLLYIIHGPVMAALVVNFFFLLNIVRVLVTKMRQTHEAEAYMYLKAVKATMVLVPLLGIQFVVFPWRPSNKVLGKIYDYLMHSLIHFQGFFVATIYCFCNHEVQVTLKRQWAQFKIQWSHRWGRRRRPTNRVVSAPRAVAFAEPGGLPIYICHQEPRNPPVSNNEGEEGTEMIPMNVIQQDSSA
T2 sequence (looked up) 2: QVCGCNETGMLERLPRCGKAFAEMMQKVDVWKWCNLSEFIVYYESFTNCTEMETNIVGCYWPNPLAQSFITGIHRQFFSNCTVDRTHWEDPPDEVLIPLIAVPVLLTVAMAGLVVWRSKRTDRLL

rat calcitonin receptor [3] = biological target: T3, rat calcitonin receptor (rat, UniProt P32214 25-516); assay: SPA competition vs 125I-calcitonin, membranes of BHK cells with rat calcitonin receptor (Assay VIII)
T3 construct: whole, on cells; Membranes prepared from transiently transfected BHK tk'ts 13 cells (Assay VIII); also called rCTR; rCT
T3 sequence (looked up): T2 sequence (looked up) 1

rat calcitonin receptor [4] = biological target: T3, rat calcitonin receptor; assay: ratio of binding IC50s: rat calcitonin receptor / rat amylin receptor (reference)

Ratio hCT/hAmylin binding [1]: 46.5
IC50 [2]: 2.31 nM
IC50 (rat calcitonin receptor [3]): 196 nM
Ratio rCT/rAmylin binding (rat calcitonin receptor [4]): 84.9
B1: N^ε1-[(4S)-4-carboxy-4-[[(4S)-4-carboxy-4-(19-carboxynonadecanoylamino)butanoyl]amino]butanoyl]-[Glu14,Arg17,Pro21,Pro27,Arg34]-h-amylin (peptide)
peptide: K([γGlu-γGlu-C20 diacid])CNTATCATQRLAEFLRHSSPNFGAIPSSTNVGRNTY-NH2
modifications: disulfide 2-7; N-terminus assumed
SMILES: CC[C@H](C)[C@H](NC(=O)[C@H](C)NC(=O)CNC(=O)[C@H](Cc1ccccc1)NC(=O)[C@H](CC(N)=O)NC(=O)[C@@H]1CCCN1C(=O)[C@H](CO)NC(=O)[C@H](CO)NC(=O)[C@H](Cc1c[nH]cn1)NC(=O)[C@H](CCCNC(=N)N)NC(=O)[C@H](CC(C)C)NC(=O)[C@H](Cc1ccccc1)NC(=O)[C@H](CCC(=O)O)NC(=O)[C@H](C)NC(=O)[C@H](CC(C)C)NC(=O)[C@H](CCCNC(=N)N)NC(=O)[C@H](CCC(N)=O)NC(=O)[C@@H](NC(=O)[C@H](C)NC(=O)[C@@H]1CSSC[C@H](NC(=O)[C@@H](N)CCCCNC(=O)CC[C@H](NC(=O)CC[C@H](NC(=O)CCCCCCCCCCCCCCCCCCC(=O)O)C(=O)O)C(=O)O)C(=O)N[C@@H](CC(N)=O)C(=O)N[C@@H]([C@@H](C)O)C(=O)N[C@@H](C)C(=O)N[C@@H]([C@@H](C)O)C(=O)N1)[C@@H](C)O)C(=O)N1CCC[C@H]1C(=O)N[C@@H](CO)C(=O)N[C@@H](CO)C(=O)N[C@H](C(=O)N[C@@H](CC(N)=O)C(=O)N[C@H](C(=O)NCC(=O)N[C@@H](CCCNC(=N)N)C(=O)N[C@@H](CC(N)=O)C(=O)N[C@H](C(=O)N[C@@H](Cc1ccc(O)cc1)C(N)=O)[C@@H](C)O)C(C)C)[C@@H](C)O
notes: Analogue of human amylin; also called compound 88

Ratio hCT/hAmylin binding [1]: 28
IC50 [2]: 2.37 nM
IC50 (rat calcitonin receptor [3]): 115 nM
Ratio rCT/rAmylin binding (rat calcitonin receptor [4]): 48.8
B2: N^ε1-[(4S)-4-carboxy-4-[[(4S)-4-carboxy-4-(19-carboxynonadecanoylamino)butanoyl]amino]butanoyl]-[Glu14,Arg17,Pro21,Pro27,Arg35]-h-amylin (peptide)
peptide: K([γGlu-γGlu-C20 diacid])CNTATCATQRLAEFLRHSSPNFGAIPSSTNVGSRTY-NH2
modifications: disulfide 2-7; N-terminus assumed
SMILES: CC[C@H](C)[C@H](NC(=O)[C@H](C)NC(=O)CNC(=O)[C@H](Cc1ccccc1)NC(=O)[C@H](CC(N)=O)NC(=O)[C@@H]1CCCN1C(=O)[C@H](CO)NC(=O)[C@H](CO)NC(=O)[C@H](Cc1c[nH]cn1)NC(=O)[C@H](CCCNC(=N)N)NC(=O)[C@H](CC(C)C)NC(=O)[C@H](Cc1ccccc1)NC(=O)[C@H](CCC(=O)O)NC(=O)[C@H](C)NC(=O)[C@H](CC(C)C)NC(=O)[C@H](CCCNC(=N)N)NC(=O)[C@H](CCC(N)=O)NC(=O)[C@@H](NC(=O)[C@H](C)NC(=O)[C@@H]1CSSC[C@H](NC(=O)[C@@H](N)CCCCNC(=O)CC[C@H](NC(=O)CC[C@H](NC(=O)CCCCCCCCCCCCCCCCCCC(=O)O)C(=O)O)C(=O)O)C(=O)N[C@@H](CC(N)=O)C(=O)N[C@@H]([C@@H](C)O)C(=O)N[C@@H](C)C(=O)N[C@@H]([C@@H](C)O)C(=O)N1)[C@@H](C)O)C(=O)N1CCC[C@H]1C(=O)N[C@@H](CO)C(=O)N[C@@H](CO)C(=O)N[C@H](C(=O)N[C@@H](CC(N)=O)C(=O)N[C@H](C(=O)NCC(=O)N[C@@H](CO)C(=O)N[C@@H](CCCNC(=N)N)C(=O)N[C@H](C(=O)N[C@@H](Cc1ccc(O)cc1)C(N)=O)[C@@H](C)O)C(C)C)[C@@H](C)O
notes: Analogue of human amylin; also called compound 89
